Measured values from US20230272390A1, “COMPOSITIONS AND METHODS FOR HEMOGLOBIN PRODUCTION” (THE CHILDREN'S HOSPITAL OF PHILADELPHIA, priority 2020, published 2023).

What was measured:
endogenous ZNF410 [1] = target: T1, endogenous ZNF410 (Homo sapiens, UniProt Q86VK4); experiment: RT-qPCR in HUDEP-2 cells overexpressing HA-tagged ZNF410 constructs; format: cell-based
T1 construct: endogenous in cells; host or cells: HUDEP-2 (HUDEP-2-Cas9) cells, differentiated
T1 sequence (Q86VK4 1-478): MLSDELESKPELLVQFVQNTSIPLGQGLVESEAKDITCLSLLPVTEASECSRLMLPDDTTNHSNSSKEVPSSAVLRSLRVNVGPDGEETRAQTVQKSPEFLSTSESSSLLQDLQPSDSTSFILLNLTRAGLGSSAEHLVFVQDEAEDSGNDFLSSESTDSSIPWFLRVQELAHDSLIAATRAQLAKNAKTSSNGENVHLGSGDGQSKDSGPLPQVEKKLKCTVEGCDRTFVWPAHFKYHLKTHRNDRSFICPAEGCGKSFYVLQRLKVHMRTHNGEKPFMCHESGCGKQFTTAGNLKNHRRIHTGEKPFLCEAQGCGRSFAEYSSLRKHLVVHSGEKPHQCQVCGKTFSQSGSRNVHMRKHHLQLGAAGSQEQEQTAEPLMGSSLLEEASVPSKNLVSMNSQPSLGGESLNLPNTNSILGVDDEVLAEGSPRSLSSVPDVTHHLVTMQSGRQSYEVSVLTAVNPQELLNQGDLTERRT
Description: HUDEP-2 cells were cultured and differentiated as described (Kurita, et al. (2013) PLoS One 8:e59890). Briefly, StemSpan™ Serum-Free Expansion Medium (SFEM) supplemented with 50 ng/ml human stem cell factor (SCF), 10 μM dexamethasone, 1 μg/ml doxycycline, 3 IU/ml erythropoietin and 1% penicillin/streptomycin was utilized for routine cell maintenance. Cell density was kept at 0.1-1×10^6/ml. HUDEP-2 cells were differentiated for 6-7 days in IMDM supplemented with 50 ng/ml human SCF, 3 IU/ml erythropoietin, 2.5% fetal bovine serum, 250 μg/ml holo-transferrin, 10 ng/ml heparin, 10 μg/ml insulin, 1 μg/ml doxycycline and 1% penicillin/streptomycin.
SgRNAs were cloned into a lentiviral U6-sgRNA-EFS-GFP/mCherry expression vector (LRG, Addgene: #65656) by BsmBI digestion. The ZNF410 cDNA (clone ID: OHu10535), CHD4 cDNA (clone ID: OHu28780) were purchased from GenScript and were sub-cloned into a lentiviral vector pSDM101-IRES-GFP. ZNF410 variants were sub-cloned into pSDM101-IRES-GFP vector. The N-terminal HA tag was introduced by PCR. For EMSA, the ZNF410 full length or different ZF versions were sub-cloned into mammalian expression vector pcDNA3.
Lentivirus was produced as described (Grevet, et al. (2018) Science 361:285-290). Briefly, 10-20 μg of expression vectors, 5-10 μg of pVSVG (pMD2.G) and 7.5-15 μg of psPAX2 package plasmids, and 80 μl of 1 mg/ml polyethylenimine (PEI) were mixed, incubated for 15-20 minutes, and added to HEK293T cells grown in 10 cm plates to above 90% confluence. Media were replaced 6-8 hours post transfection, virus was collected 24 hours and 48 hours post-transfection and pooled. For infection, virus-containing supernatant was mixed with the indicated cell lines with 8 μg/ml polybrene and 10 mM HEPES, and then spun at 2250 rpm for 1.5 hours at room temperature. Infected HUDEP-2 cells were selected for mCherry+ or GFP+ cell sorting at 48 hours post-infection.
Total RNA was purified using the RNeasy® Plus Mini Kit (Qiagen), including an on-column DNAse treatment using RNase-free DNase set (Qiagen) to remove genomic DNA. Reverse transcription was accomplished using iScript™ Supermix (Bio-Rad). qPCR reactions were prepared with Power SYBR® Green (ThermoFisher Scientific). Quantification was performed using the ΔΔCT method.
Overexpression of ZF1-5 but not ZF2-4 should compete with endogenous ZNF410 for chromatin binding, thus acting in a dominant-negative manner. To test this hypothesis, a construct containing HA-tagged ZF1-5 or ZF2-4 driven by the EF1α promoter was introduced via lentiviral infection into HUDEP-2 cells. As control, the expression of full-length HA-tagged ZNF410 was forced. […] Moreover, full-length HA-ZNF410 when overexpressed to similar levels to HA-ZF1-5 also produced similar binding patterns (FIG. 4A). […] Thus, the ZF region is sufficient for chromatin occupancy but insufficient for CHD4 gene activation. […] Finally, the impact of ZNF410 expression on γ-globin levels was also measured.

endogenous ZNF410 [2] = experiment: ChIP-seq in HUDEP-2 cells overexpressing HA-tagged ZF constructs; format: cell-based, human; conditions: overexpression in HUDEP-2 cells
Description: HUDEP-2 cells at Day 3 of differentiation, primary human CD34+ cells at Day 9 differentiation (similar to the polychromatic stage) and G1E-ER4 cells at 24 hours differentiation were crosslinked with 1% formaldehyde at room temperature for 10 min and quenched by the addition of glycine. ChIP experiments were performed (Hsu, et al. (2017) Mol. Cell., 66:102-116). ZNF410 (Proteintech, Cat. #14529-1-AP), HA (Sigma, Cat. #11815016001) and H3K27ac (Abcam, Cat. #ab4729) antibodies were used for ChIP. ChIP-seq libraries were prepared using TruSeq® ChIP-seq Sample preparation Kit (part #IP-202-1012) according to the manufacturer's instructions. Reads were aligned with Bowtie2 local alignment to allow the mapping of indels (Langmead, et al. (2012) Nat. Methods 9:357-359). […]
Reads were aligned against reference genome hg38 for human and genome mm10 for mouse using Bowtie2 (v2.2.9) and the default parameters. […] Reads aligned to mitochondria, random contigs and ENCODE blacklisted regions were also removed for downstream analysis. Genome coverage files were generated and normalized to 1 million reads per library using bedtools (v2.25.0), and then converted to bigwig format for visualization using the UCSC Toolkit. […] Read density plot and heatmap around selected peaks were generated using Deeptools (version 2.5.7, “computeMatrix” and “plotHeatmap”). […]

[3] = overexpression in HUDEP-2 cells

B1: ZF1-5: fragment of human ZNF410 comprising five zinc finger domains ZF1-5 (residues 217-366); dominant-negative when overexpressed (protein)
chain: KKLKCTVEGCDRTFVWPAHFKYHLKTHRNDRSFICPAEGCGKSFYVLQRLKVHMRTHNGEKPFMCHESGCGKQFTTAGNLKNHRRIHTGEKPFLCEAQGCGRSFAEYSSLRKHLVVHSGEKPHQCQVCGKTFSQSGSRNVHMRKHHLQLG
modifications: left off: small tags and cut ends
notes: fragment of human ZNF410 comprising five zinc finger domains ZF1-5 (residues 217-366); dominant-negative when overexpressed
B1 was tested, and the “effect on expression of the other 6 ZNF410 bound genes” value (endogenous ZNF410 [1]; [3]) was “did not impact”, the “reduction of CHD4 mRNA levels compared to control” value (endogenous ZNF410 [1]; [3]) was “approximately 70%” and the “effect on γ-globin mRNA levels” value (endogenous ZNF410 [1]; overexpression in differentiated HUDEP-2 cells) was “significant increase”. The “interference with endogenous ZNF410 binding” value (endogenous ZNF410 [2]; ChIP-seq) was “markedly interfered” and the chromatin occupancy (endogenous ZNF410 [2]; HA ChIP-seq) was “bound to the CHD4 regulatory regions and to the other ZNF410 targets”.
